Measured values: article PMC9722767

system: T1, MsmR1 (Paenibacillus polymyxa SC2-M1 (SC2 derivative)), ORF:0fff1571; assay: EMSA; details: Chemiluminescent EMSA kit (Beyotime); labeled probe about 0.4 uM, competitor about 4 uM, protein gradient; buffer, salt, pH and temperature not stated
T1 sequence: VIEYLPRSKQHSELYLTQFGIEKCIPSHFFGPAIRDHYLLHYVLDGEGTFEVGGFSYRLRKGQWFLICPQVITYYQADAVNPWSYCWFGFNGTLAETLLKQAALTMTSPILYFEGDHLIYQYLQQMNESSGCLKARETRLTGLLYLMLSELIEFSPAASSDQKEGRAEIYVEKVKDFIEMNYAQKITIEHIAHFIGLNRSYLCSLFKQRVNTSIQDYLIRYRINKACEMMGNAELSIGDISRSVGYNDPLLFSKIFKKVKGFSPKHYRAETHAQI

binding, binds:
CGGAACAAATGGATCTTCGCAAAGAATACCTTCAAATCTTTCGAGGCTCTATCAAAAGCATACTTTTGAATGCTACGATTTATGATCCGAATGGAGATGATGTTACTCCTGAAAAATTAAGAAAAGAACAGGCTCAAATCGTTAAGCCATGAATTTAATTTTGTCT (double strand) [ydfp upstream fragment]
CAGAGGAAATGCATGTCCGTATTATCGGAGACAACACGATTTCCCGCAAAAATCATGCGGTCATTGTGTATGATCCGAAGAAACGCAACTTTTACTTGCTGCCAGGCGATTCGTCAGGCTTGGCGTATCACAATAACGAGGCGGTATATTCACCAGTGGAGCTGGCTGCTTATGACGTGATTCAGCTCGGGCGCAGCAAATTTATCTTTATTCCGCTGTGCGGCGCTCATTTCGAGTGGGA (double strand) [pppL upstream fragment]
TGATCTGGTAACACCGAACTTATTCGAGGCTTCACAGCTGGCGAAGAAAGGACCGATCACGACACTGGAGCAGATGCAGGAAGCGGCTGCTATTATCCACGAGCGTGGTGCTAAGCATGTGCTGATCAAGGACCGTGGCAAAATTCGCGCAGGTAAAGCGATGGATCTGCTGTATGACGGAATCACTTTTGACTGGTTTGAAGCGGATGTTGTACAAACCAACTTTACCCACGGTGCAGGCTGTACCACTTCGGCTGCGGTAACGGCTGGTTTGGCACAAGGGCTGACTGTAC (double strand) [pepF upstream fragment]
GGACGAATCGCACATGAGGCTTTCCCCAACAAACGTGACAGTTTTAGAGCCTTGGGCAATTATGTAAAGAGAGGGCATGTTGAGGGTATGCGTCGGTTTCGACTCCGCGGATGCGCGCCTGAAACAAAGCTCTGGAATCGCTGTTTGGTGTAAACCATCCTTAGGCGTATGCCGTGCTATTTGCTTAGCTAACTCCGTAATGAGTTGGTTCAAACTTGTTCACCAATCCTTTTTCATTTAATCTGATATGAATATTGTAATTCAAACCGGACAGGAATAGGCAAGGAACGCGTATGAAT (double strand) [sdr3 upstream fragment]
ATATGATTTCTGTAGAACCTACTGCTATATTGTTGGATCTTATCAAGCTTTACACCATATGAACTTAGTTGACGCCTGCTACATAAAGATTCTTCTAAGTGCCTTTTTGGTGTGGATCTCTGATGATTATTATCTAAGAGAGGGGTTATTTTTCCCAA (double strand) [msmR1 promoter]
ACCATTTCCCGGGCAATCGGCTGCCGGGTGCGAATGGAATCGCCCAAGTCCCCTCGTGCCAGTTCACTTAGATAGGTCCCATATTGCTGTAGCCACGGCTTATCCAGCCCTAATTGCTCACGCAGCGCCTGTTTGGACTGTTCCGTGGCCTTGTCCCCGAGTATCGTTTCTGCCGGATCACCGGGAATAGCATGAATAATCGAAAACACGATAAGCGTCATCCCCA (double strand) [oppC3 upstream fragment]
CCGATTCATCTCATTTACGCATGGATATGTTGAGAAAAAGGAAATGCTCATAGCTAGAAAACTTTATACAATGAAAGAGAAATAAGCACTGTGAAATTCGACTTTTGATCATGGATTTCATATAATGTGAATTGCTTAAATTAGAGATTTAAC (double strand) [sucA upstream fragment]
CAGCAACGCACCTCAAGAGATTGCAGGTGTGAAGGTAGACAAAGTACTGGACTACTCGCAAGGCTTGGACGGACTTCCGCAGGAAAACGTACTCAAGTTTTTATTGGAGGACGGTTCTTGGTTCTGCCTGCGTCCTTCGGGCACAGAGCCTAAAATCAAAGTATACTTTGCAGTACGTGGTTCCTC (double strand) [PPSC2_23180 upstream fragment]
